In the Human Domainome abundance scans (Beltran et al. 2025) one finds abundance fitness data, which are given here for 48 variants.

B1: SH3 and PX domain-containing protein 2B, residues 155 to 209; numbered along this chain, A1X283 (parent)
chain: EQYVVVANYQKQESSEISLSVGQVVDIIEKNESGWWFVSTAEEQGWVPATCLEGQ

± gives the uncertainty stated by the source.

This data set covers variants of B1. As to the kind of experiment: abundance fitness (aPCA) (normalised: wild type 0, dead -1); higher = more abundant; growth selection in yeast, the domain comes from the species named. Conditions: Homo sapiens.
On to EQYVVVANYQKQESSEISLSVGQVVDIIEKNESGWWFVSTMEEQGWVPATCLEGQ [A41M], for which the abundance fitness was -0.084 ± 0.11.

Take EQYVVVANYQKQESSEISLSVGQVVDIIEKNESGWWFVSTVEEQGWVPATCLEGQ [A41V]: the abundance fitness was -0.127 ± 0.07.

Consider EQYVVVANYQKQESSEISLSVGQVVDIIEKNESGWWFVSTEEEQGWVPATCLEGQ [A41E], for which the abundance fitness turned out to be 0.069 ± 0.093.

As to EQYVVVANYQKQESSEISLSVGQVVDIIEKNESGWWFVSTQEEQGWVPATCLEGQ [A41Q], the abundance fitness was -0.133 ± 0.15.

Take EQYVVVANYQKQESSEISLSVGQVVDIIEKNESGWWFVSTIEEQGWVPATCLEGQ [A41I]: the abundance fitness amounted to 0.045 ± 0.22.

As to EQYVVVANYQKQESSEISLSVGQVVDIIEKNESGWWFVSTNEEQGWVPATCLEGQ [A41N], the abundance fitness is -0.244 ± 0.14.

For EQYVVVANYQKQESSEISLSVGQVVDIIEKNESGWWFVSTHEEQGWVPATCLEGQ [A41H], the abundance fitness is -0.009 ± 0.1.

EQYVVVANYQKQESSEISLSVGQVVDIIEKNESGWWFVSTLEEQGWVPATCLEGQ [A41L]: the abundance fitness was -0.041 ± 0.071.

In the case of EQYVVVANYQKQESSEISLSVGQVVDIIEKNESGWWFVSTFEEQGWVPATCLEGQ [A41F], the abundance fitness was -0.113 ± 0.15.

As for EQYVVVANYQKQESSEISLSVGQVVDIIEKNESGWWFVSTWEEQGWVPATCLEGQ [A41W], the abundance fitness was -0.376 ± 0.1.

Consider EQYVVVANYQKQESSEISLSVGQVVDIIEKNESGWWFVSTDEEQGWVPATCLEGQ [A41D], for which the abundance fitness is -0.273 ± 0.13.

In the case of EQYVVVANYQKQESSEISLSVGQVVDIIEKNESGWWFVSTKEEQGWVPATCLEGQ [A41K], the abundance fitness is -0.157 ± 0.11.

For EQYVVVANYQKQESSEISLSVGQVVDIIEKNESGWWFVSTSEEQGWVPATCLEGQ [A41S], the abundance fitness came out at 0.034 ± 0.073.

On to EQYVVVANYQKQESSEISLSVGQVVDIIEKNESGWWFVSTGEEQGWVPATCLEGQ [A41G], for which the abundance fitness is -0.122 ± 0.077.

On to EQYVVVANYQKQESSEISLSVGQVVDIIEKNESGWWFVPTAEEQGWVPATCLEGQ [S39P], for which the abundance fitness is -0.864 ± 0.23.

Regarding EQYVVVANYQKQESSEISLSVGQVVDIIEKNESGWWFVITAEEQGWVPATCLEGQ [S39I], the abundance fitness was -0.297 ± 0.11.

Regarding EQYVVVANYQKQESSEISLSVGQVVDIIEKNESGWWFVVTAEEQGWVPATCLEGQ [S39V], the abundance fitness was -0.414 ± 0.1.

In the case of EQYVVVANYQKQESSEISLSVGQVVDIIEKNESGWWFVCTAEEQGWVPATCLEGQ [S39C], the abundance fitness was -0.022 ± 0.11.

Consider EQYVVVANYQKQESSEISLSVGQVVDIIEKNESGWWFVRTAEEQGWVPATCLEGQ [S39R], for which the abundance fitness was -0.009 ± 0.058.

With EQYVVVANYQKQESSEISLSVGQVVDIIEKNESGWWFVYTAEEQGWVPATCLEGQ [S39Y], the abundance fitness is -0.312 ± 0.14.

EQYVVVANYQKQESSEISLSVGQVVDIIEKNESGWWFVWTAEEQGWVPATCLEGQ [S39W]: the abundance fitness is -0.371 ± 0.09.

Take EQYVVVANYQKQESSEISLSVGQVVDIIEKNESGWWFVMTAEEQGWVPATCLEGQ [S39M]: the abundance fitness was -0.018 ± 0.11.

Take EQYVVVANYQKQESSEISLSVGQVVDIIEKNESGWWFVATAEEQGWVPATCLEGQ [S39A]: the abundance fitness is -0.08 ± 0.083.

In the case of EQYVVVANYQKQESSEISLSVGQVVDIIEKNESGWWFVETAEEQGWVPATCLEGQ [S39E], the abundance fitness was found to be 0.013 ± 0.093.

In the case of EQYVVVANYQKQESSEISLSVGQVVDIIEKNESGWWFVFTAEEQGWVPATCLEGQ [S39F], the abundance fitness is -0.241 ± 0.1.

Consider EQYVVVANYQKQESSEISLSVGQVVDIIEKNESGWWFVNTAEEQGWVPATCLEGQ [S39N], for which the abundance fitness is -0.022 ± 0.14.

On to EQYVVVANYQKQESSEISLSVGQVVDIIEKNESGWWFVKTAEEQGWVPATCLEGQ [S39K], for which the abundance fitness is -0.035 ± 0.13.

Consider EQYVVVANYQKQESSEISLSVGQVVDIIEKNESGWWFVDTAEEQGWVPATCLEGQ [S39D], for which the abundance fitness is -0.113 ± 0.11.

With EQYVVVANYQKQESSEISLSVGQVVDIIEKNESGWWFVLTAEEQGWVPATCLEGQ [S39L], the abundance fitness was -0.329 ± 0.085.

For the variant EQYVVVANYQKQESSEISLSVGQVVDIIEKNESGWWFVGTAEEQGWVPATCLEGQ [S39G], the abundance fitness was -0.107 ± 0.06.

For the variant EQYVVVANYQKQESSEISLSVGQVVDIIEKNESGWWFVTTAEEQGWVPATCLEGQ [S39T], the abundance fitness was -0.039 ± 0.095.

EQYVVVANYQKQESSEISLSVGQVVDIIEKNESGWWFNSTAEEQGWVPATCLEGQ [V38N]: the abundance fitness is -0.895 ± 0.33.

Turning to EQYVVVANYQKQESSEISLSVGQVVDIIEKNESGWWFRSTAEEQGWVPATCLEGQ [V38R], the abundance fitness was -0.963 ± 0.1.

For the variant EQYVVVANYQKQESSEISLSVGQVVDIIEKNESGWWFPSTAEEQGWVPATCLEGQ [V38P], the abundance fitness is -1.14 ± 0.27.

Consider EQYVVVANYQKQESSEISLSVGQVVDIIEKNESGWWFHSTAEEQGWVPATCLEGQ [V38H], for which the abundance fitness is -1.13 ± 0.3.

For EQYVVVANYQKQESSEISLSVGQVVDIIEKNESGWWFCSTAEEQGWVPATCLEGQ [V38C], the abundance fitness is -0.298 ± 0.16.

For the variant EQYVVVANYQKQESSEISLSVGQVVDIIEKNESGWWFQSTAEEQGWVPATCLEGQ [V38Q], the abundance fitness was -1.08 ± 0.22.

Turning to EQYVVVANYQKQESSEISLSVGQVVDIIEKNESGWWFISTAEEQGWVPATCLEGQ [V38I], the abundance fitness is -0.319 ± 0.15.

For the variant EQYVVVANYQKQESSEISLSVGQVVDIIEKNESGWWFASTAEEQGWVPATCLEGQ [V38A], the abundance fitness is -0.07 ± 0.068.

In the case of EQYVVVANYQKQESSEISLSVGQVVDIIEKNESGWWFGSTAEEQGWVPATCLEGQ [V38G], the abundance fitness was -0.363 ± 0.068.

EQYVVVANYQKQESSEISLSVGQVVDIIEKNESGWWFESTAEEQGWVPATCLEGQ [V38E]: the abundance fitness is -0.76 ± 0.12.

Regarding EQYVVVANYQKQESSEISLSVGQVVDIIEKNESGWWFFSTAEEQGWVPATCLEGQ [V38F], the abundance fitness is -0.915 ± 0.18.

Consider EQYVVVANYQKQESSEISLSVGQVVDIIEKNESGWWFTSTAEEQGWVPATCLEGQ [V38T], for which the abundance fitness was -0.875 ± 0.13.

Consider EQYVVVANYQKQESSEISLSVGQVVDIIEKNESGWWFWSTAEEQGWVPATCLEGQ [V38W], for which the abundance fitness was -1.02 ± 0.28.

As to EQYVVVANYQKQESSEISLSVGQVVDIIEKNESGWWFDSTAEEQGWVPATCLEGQ [V38D], the abundance fitness is -0.736 ± 0.14.

In the case of EQYVVVANYQKQESSEISLSVGQVVDIIEKNESGWWFLSTAEEQGWVPATCLEGQ [V38L], the abundance fitness is -0.736 ± 0.088.

In the case of EQYVVVANYQKQESSEISLSVGQVVDIIEKNESGWWFYSTAEEQGWVPATCLEGQ [V38Y], the abundance fitness was -0.921 ± 0.29.

For the variant EQYVVVANYQKQESSEISLSVGQVVDIIEKNESGWWFKSTAEEQGWVPATCLEGQ [V38K], the abundance fitness was -1.03 ± 0.2.
